According to US20250289893A1 (OXFORD UNIVERSITY INNOVATION, published 2025):
Numbering of substitutions follows the chain as printed.

B1: 110 (VR12112) (antibody, V domains shown)
VH: QSVEESGGRLVTPGTPLTLTCTVSGFSLSSYAMIWVRQAPGKGLEWIGIINSSDNTHYATWAKGRFTISKTSTTVDLKITSPTTEDTATYFCARDPYDYGYGWYFDLWGPGTLVTVSS
VL: AQVLTQTPSPVSAAVGGTVTINCQASQSVFNNKNLAWYQQKPGQPPKLLIYKASTLASGVSSRFKGSGSGTQFALTISGVQCDDAATYYCQGEFSCSSTDCVTFGGGTEVVVK
notes: also called OX110; antibody 110
B2: 77A (VR11851) (antibody, V domains shown)
VH: QSVEESGGRLVTPGTPLTLTCTVSGFSLSSYAMSWVRQAPGKGLEWIGIISSSGTTYYASWAKGRFTISKTSTTVDLKITSPTTEDTATYFCARVDYYSSGWGGLWGPGTLVTVSS
VL: AVEMTQTPASMSAAVGGTVTIKCQASEDIYSNLAWYQQKPGQPPKLLIYGASTLASGVPSRFKGSGSGTEYTLTISGVQCDDAATYYCQCTYDTSSYGNTFGGGTEMVVE
notes: also called OX77a; antibody 77a
B3: 111 (VR12113) (antibody, V domains shown)
VH: QSVEESGGRLVTPGTPLTLTCTASGFSLSTYAMSWVRQAPGKGLEWIGIISSSGSTYYASWAKGRFTISKTSTTVDLKITSPTTEDTATYFCARETWYWLDLWGQGTLVTVSS
VL: B2 VL with M11V, K22N, T91A, T94S, N99T, T100P, M107V, E110K
notes: also called OX111

How the values were obtained:
[1] = target: T1, chimeric CD1a pool B protein [human CD1a lipid binding domain, mouse CD1d Ig domain] (human; mouse, UniProt P06126 18-201; P11609 205-297, limits assumed); test: ELISA, 10 µg/ml antibody
T1 sequence (P06126 other isoform, or with tags, fused parts or gaps mutant limits assumed): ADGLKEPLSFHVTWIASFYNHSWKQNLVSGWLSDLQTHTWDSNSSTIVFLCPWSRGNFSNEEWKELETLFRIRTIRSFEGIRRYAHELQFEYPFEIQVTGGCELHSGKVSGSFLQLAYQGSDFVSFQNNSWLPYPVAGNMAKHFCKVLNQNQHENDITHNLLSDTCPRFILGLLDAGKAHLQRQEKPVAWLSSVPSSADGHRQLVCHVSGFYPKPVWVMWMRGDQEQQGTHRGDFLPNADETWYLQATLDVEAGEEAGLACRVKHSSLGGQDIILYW
Protocol: (§1) CD1a-specific antibodies were identified by ELISA. […] 20 μl/well of peroxidase-conjugated goat anti-species IgG Fc-specific F(ab′)2 fragment (Jackson ImmunoResearch), diluted 1:5000 in block buffer was added and incubated at room temperature for 1 hour, followed by washing with wash buffer.
(§2) The antibodies were titrated through a dilution series and compared to a control rabbit IgG antibody. […] Data shown for purified antibodies.

[2] = target: T2, human CD1a protein (pool B) (human, UniProt P06126 18-295, limits assumed); test: ELISA, 100 µg/ml antibody
T2 construct: Recombinant protein of the ELISA (coated) and the Biacore T200 titration; whole entry named; also called human CD1a pool B; full length CD1a
T2 sequence (P06126 18-295 limits assumed): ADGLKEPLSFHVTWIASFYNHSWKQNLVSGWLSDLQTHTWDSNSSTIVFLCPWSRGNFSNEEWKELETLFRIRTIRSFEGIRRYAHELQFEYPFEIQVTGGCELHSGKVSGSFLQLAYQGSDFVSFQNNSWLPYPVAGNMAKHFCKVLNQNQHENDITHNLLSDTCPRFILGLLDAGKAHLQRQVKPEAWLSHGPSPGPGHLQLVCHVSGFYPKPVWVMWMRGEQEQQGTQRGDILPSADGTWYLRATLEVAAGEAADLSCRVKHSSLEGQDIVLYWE
Protocol: as §1
(§3) The antibodies were titrated through a dilution series and compared to a control rabbit IgG antibody.

[3] = target: T1, chimeric CD1a pool B protein [human …; test: ELISA, 0.1 µg/ml antibody
Protocol: as §1, §2

[4] = target: T1, chimeric CD1a pool B protein [human …; test: ELISA, 100 µg/ml antibody
Protocol: as §1, §2

[5] = target: T2, human CD1a protein (pool B); test: ELISA, 31.6 µg/ml antibody
Protocol: as §1, §3

[6] = target: T3, human CD1a expressed on cells (human, UniProt P06126 17-327; P61769 21-119); test: flow cytometry, C1R cells, 100 µg/ml antibody
T3 construct: also called HEK - CD1a; C1R - CD1a
Protocol: (§4) Binding to proteins expressed on HEK, C1R and MOLT4 cell lines was assessed. […] The C1R-CD1a, C1R-empty vector and MOLT4 cell lines were washed in 1×PBS on the day required. All cell lines were counted and resuspended in 1×PBS and then stained for 30 minutes at 37° C. using the DiI or DiO cellular stains (Invitrogen). Cells were washed with flow cytometry buffer (1% bovine serum albumin, 2 mM EDTA and 0.1% sodium azide in PBS) before mixing 2 DiI-stained and DiO-stained populations together. The cells (20 μl/well) were then added to dilutions of antibody sample (B cell culture supernatant, TAP supernatant, clone supernatant, purified antibody solution) (20 μl/well) and incubated for 1 hour at 4° C. in a flow cytometry assay plate, before being washed with flow cytometry buffer. 10 μl/well of Alexafluor647-conjugated goat anti-species IgG Fc-specific F(ab′)2 fragment (Jackson ImmunoResearch), diluted 1:2500 in flow cytometry buffer, was added and incubated at 4° C. for 30 minutes, followed by washing with wash buffer. The fluorescence intensity was then measured on an iQue screener PLUS.
(§5) Binding was quantified as fold change in fluorescence intensity geomean over background assessed by flow cytometry.

[7] = target: T3, human CD1a expressed on cells; test: flow cytometry, C1R cells, 3.16 µg/ml antibody
Protocol: as §4, §5

[8] = target: T3, human CD1a expressed on cells; test: flow cytometry, C1R cells, 0.316 µg/ml antibody
Protocol: as §4, §5

[9] = target: T3, human CD1a expressed on cells; test: flow cytometry, MOLT4 cells, 100 µg/ml antibody
Protocol: (§6) CD1a-specific antibodies were identified by flow cytometry. Binding to proteins expressed on HEK, C1R and MOLT4 cell lines was assessed. […] The C1R-CD1a, C1R-empty vector and MOLT4 cell lines were washed in 1×PBS on the day required. All cell lines were counted and resuspended in 1×PBS and then stained for 30 minutes at 37° C. using the DiI or DiO cellular stains (Invitrogen). Cells were washed with flow cytometry buffer (1% bovine serum albumin, 2 mM EDTA and 0.1% sodium azide in PBS) before mixing 2 DiI-stained and DiO-stained populations together. The cells (20 μl/well) were then added to dilutions of antibody sample (B cell culture supernatant, TAP supernatant, clone supernatant, purified antibody solution) (20 μl/well) and incubated for 1 hour at 4° C. in a flow cytometry assay plate, before being washed with flow cytometry buffer. 10 μl/well of Alexafluor647-conjugated goat anti-species IgG Fc-specific F(ab′)2 fragment (Jackson ImmunoResearch), diluted 1:2500 in flow cytometry buffer, was added and incubated at 4° C. for 30 minutes, followed by washing with wash buffer. The fluorescence intensity was then measured on an iQue screener PLUS.
as §5

[10] = target: T3, human CD1a expressed on cells; test: flow cytometry, HEK-293 cells, 10 µg/ml antibody
Protocol: as §4
(§7) HEK-293 cells were transiently transfected with human CD1a, CD1b, CD1c or CD1d and co-transfected with human β2M.

[11] = target: T4, human CD1b expressed on HEK-293 cells (human, UniProt P29016 18-333; P61769 21-119); test: flow cytometry, HEK-293 cells, 10 µg/ml antibody
T4 construct: also called HEK - CD1b
Protocol: as §4, §7

[12] = target: T5, human CD1c expressed on HEK-293 cells (human, UniProt P29017 18-333; P61769 21-119); test: flow cytometry, HEK-293 cells, 10 µg/ml antibody
T5 construct: also called HEK - CD1c
Protocol: as §4, §7

[13] = target: T6, human CD1d expressed on HEK-293 cells (human, UniProt P15813 20-335; P61769 21-119); test: flow cytometry, HEK-293 cells, 10 µg/ml antibody
T6 construct: also called HEK - CD1d
Protocol: as §4, §7

[14] = target: T3, human CD1a expressed on cells; test: flow cytometry, MOLT4 cells, 3.16 µg/ml antibody
Protocol: as §6, §5

[15] = target: T3, human CD1a expressed on cells; test: flow cytometry, HEK-293 cells, 100 µg/ml antibody
Protocol: as §4, §7

[16] = target: T4, human CD1b expressed on HEK-293 cells; test: flow cytometry, HEK-293 cells, 100 µg/ml antibody
Protocol: as §4, §7

[17] = target: T5, human CD1c expressed on HEK-293 cells; test: flow cytometry, HEK-293 cells, 100 µg/ml antibody
Protocol: as §4, §7

[18] = target: T6, human CD1d expressed on HEK-293 cells; test: flow cytometry, HEK-293 cells, 100 µg/ml antibody
Protocol: as §4, §7

[19] = target: T3, human CD1a expressed on cells; test: flow cytometry, HEK-293 cells, 3.16 µg/ml antibody
Protocol: as §4, §7

[20] = target: T4, human CD1b expressed on HEK-293 cells; test: flow cytometry, HEK-293 cells, 3.16 µg/ml antibody
Protocol: as §4, §7

[21] = target: T5, human CD1c expressed on HEK-293 cells; test: flow cytometry, HEK-293 cells, 3.16 µg/ml antibody
Protocol: as §4, §7

[22] = target: T6, human CD1d expressed on HEK-293 cells; test: flow cytometry, HEK-293 cells, 3.16 µg/ml antibody
Protocol: as §4, §7

[23] = target: T3, human CD1a expressed on cells; test: flow cytometry, HEK-293 cells, 0.316 µg/ml antibody
Protocol: as §4, §7

[24] = target: T4, human CD1b expressed on HEK-293 cells; test: as above
Protocol: as §4, §7

[25] = target: T5, human CD1c expressed on HEK-293 cells; test: as above
Protocol: as §4, §7

[26] = target: T6, human CD1d expressed on HEK-293 cells; test: as above
Protocol: as §4, §7

| Binder | Optical Density (OD) [1] [OD] | Optical Density (OD) [2] [OD] | Optical Density (OD) [3] [OD] | Optical Density (OD) [4] [OD] | Optical Density (OD) [5] [OD] | Fluorescence Intensity Geomean (normalized to background) [6] [fold over background] | Fluorescence Intensity Geomean (normalized to background) [7] [fold over background] | Fluorescence Intensity Geomean (normalized to background) [8] [fold over background] | Fluorescence Intensity Geomean (normalized to background) [9] [fold over background] | Fluorescence Intensity Geomean (normalized to background) [10] [fold over background] | Fluorescence Intensity Geomean (normalized to background) [11] [fold over background] | Fluorescence Intensity Geomean (normalized to background) [12] [fold over background] | Fluorescence Intensity Geomean (normalized to background) [13] [fold over background] | Fluorescence Intensity Geomean (normalized to background) [14] [fold over background] | Fluorescence Intensity Geomean (normalized to background) [15] [fold over background] | Fluorescence Intensity Geomean (normalized to background) [16] [fold over background] | Fluorescence Intensity Geomean (normalized to background) [17] [fold over background] | Fluorescence Intensity Geomean (normalized to background) [18] [fold over background] | Fluorescence Intensity Geomean (normalized to background) [19] [fold over background] | Fluorescence Intensity Geomean (normalized to background) [20] [fold over background] | also measured |
| --- | --- | --- | --- | --- | --- | --- | --- | --- | --- | --- | --- | --- | --- | --- | --- | --- | --- | --- | --- | --- | --- |
| B1 | 1.46 | 1.23 | 1.02 | 1.4 | 1.24 | 4.8 | 15.2 | 29.7 | 5.2 | 15.7 | 1.1 | 1 | 1 | 22.6 | 5.9 | 1.1 | 1 | 1.1 | 31.5 | 1.1 | Fluorescence Intensity Geomean (normalized to background) [21]: 1.1 fold over background; Fluorescence Intensity Geomean (normalized to background) [22]: 1 fold over background; Fluorescence Intensity Geomean (normalized to background) [23]: 38.3 fold over background; Fluorescence Intensity Geomean (normalized to background) [24]: 1 fold over background; Fluorescence Intensity Geomean (normalized to background) [25]: 0.9 fold over background; Fluorescence Intensity Geomean (normalized to background) [26]: 1 fold over background |
| B2 | 1.31 | 1.39 | 1.25 | 1.27 | 1.28 | 0.9 | 4.2 | 19 | 0.8 | 13.7 | 1.1 | 0.9 | 1 | 7.4 | 4.1 | 1 | 0.9 | 1 | 23.3 | 0.9 | Fluorescence Intensity Geomean (normalized to background) [21]: 0.9 fold over background; Fluorescence Intensity Geomean (normalized to background) [22]: 0.9 fold over background; Fluorescence Intensity Geomean (normalized to background) [23]: 58.6 fold over background; Fluorescence Intensity Geomean (normalized to background) [24]: 1.1 fold over background; Fluorescence Intensity Geomean (normalized to background) [25]: 1 fold over background; Fluorescence Intensity Geomean (normalized to background) [26]: 1 fold over background |
| B3 | 1.4 | 1.12 | 1.25 | 1.27 | 1.07 | 7.3 | 15.6 | 28.8 | 3.9 | 11.1 | 1.1 | 1 | 1.1 | 18.9 | 4.3 | 1.1 | 1.1 | 1.1 | 24.9 | 1.1 | Fluorescence Intensity Geomean (normalized to background) [21]: 1.1 fold over background; Fluorescence Intensity Geomean (normalized to background) [22]: 1.1 fold over background; Fluorescence Intensity Geomean (normalized to background) [23]: 30.8 fold over background; Fluorescence Intensity Geomean (normalized to background) [24]: 1 fold over background; Fluorescence Intensity Geomean (normalized to background) [25]: 1 fold over background; Fluorescence Intensity Geomean (normalized to background) [26]: 0.9 fold over background |
